Measurements reported in US20250034594A1, “RNA-GUIDED GENOME RECOMBINEERING AT KILOBASE SCALE” (THE BOARD OF TRUSTEES OF THE LELAND STANFORD JUNIOR …, priority 2021, published 2025).

Key:
Format in all cases: cell-based
[1] = system: gene editing with Cas9 and dCas9; experiment: Screen of 322 new SSAP proteins, activity across all experiments (Cas9 and dCas9, Table 5); design: scale not given here
Text: (§1) 322 new SSAP proteins were identified from sequence data, synthesized, and screened for activity with Cas9 and dCas9. Gene editing activities are shown below in Table 5, followed by amino acid sequences of the proteins.

gene editing with dCas9 = experiment: Screen of 322 new SSAP proteins, gene editing activity with dCas9 (Table 5); design: dCas9 with SSAP activity: scale not given here
Text: as §1

gene editing with Cas9 = experiment: Screen of 322 new SSAP proteins, gene editing activity with Cas9 (Table 5); design: Cas9 with SSAP activity: scale not given here
Text: as §1

Row | Molecule | Activity across all experiments [1] | dCas9 with SSAP activity (gene editing with dCas9) | dCas9 with SSAP activity (normalized) (gene editing with dCas9) | Cas9 with SSAP activity (gene editing with Cas9) | Cas9 with SSAP activity (normalized) (gene editing with Cas9)
1 | SSAP_132: SEQ ID NO: 301; Enterocloster clostridioformis (protein, listed as Enterocloster clostridioformis) GIDVKHELEKRAAGQDKPVKLTRNMTIADMVKALEPEIKRALPAILTPERFTRMALSAVNNTPELANCTPMSFIAALMNAAQLGLEPNTPLGQAYLIPYKNKGTLECQFQLGYKGLIDLAYRTGQIQIIQAQAVREFDYFEYQYGLDSRLVHKPGNEERGQITFIYGLFKLSNGGYGFEVSNKAEMDAFAAKYSKSFGSKYSPWTEDYESMAKKTVIKRALKYAPVSSDFQKALSLDETVKSEIAVDMSEIRNDCIPADMGTEAA | −5.320 | −3.318 | −0.536 | −7.323 | −1.345
2 | SSAP_265: SEQ ID NO: 434; Clostridium coskatii (protein, listed as Clostridium coskatii) SDKKMVVLNESHTMLNKLLETKQEALPKDFNKARFLQNCMTVLQDTKGIEQCQPITVARTMLKGAFLGLDFFNKECYAIPYKDNLQFQTDYKGEIKLAKKYSFNPIKDIYAKIVRQGDDFQEAIINGQQTINFTPVPFNNGEIIGAFAVCLFQDGSMLYETMAKQEIENTRKNFSKAPNSPAWTKTPGEMYKKTVLRRLCKLIELDFDSVECKKVYNETSDFEFENQQHEVSNFDKKDIDEDKIVEADVEVQDDNENNVPEDGE | −2.057 | −3.182 | −0.478 | −0.932 | −0.510
3 | SSAP_237: SEQ ID NO: 406; Paenibacillus popilliae ATCC 14706 (protein, listed as Paenibacillus popilliae) STSHLLTIHNNLEKLIDSKREAMPKSFNKTRFLQNCMTVLQDTKDVGKCDPQSVARTLLKGAFLGLDFFNKECYAITYGGSVQFQTDYKGEKKLAKKYSVRPVKDIYAKLVREGDEFIEEIKDGQPTVQFKPLPFNDSEIKGAFAVSLFEDDGLAYEVMSVAEIELTRKNYSKQPNGQAWVKSKGEMYKKTVLRRLCKNIELDFDTIEQAQAFEDSSDFEFNKEPKQAQQSPLNPQATVIDAEYEEVKEESDNETNQE | −5.493 | −3.513 | −0.512 | −7.473 | 
4 | SSAP_273: SEQ ID NO: 442; Virgibacillus (multispecies) (protein, listed as Virgibacillus sp.) ATNDSVKNQIANKNQGSNQVNPNNLGLKQLLSTPTMRKKFDEVLDKKAPQFMSSLLNLYSNDSYLQKAEPMSVVTSALVAATLDLPIDKNLGYAWIVPYGGKAQFQLGYKGYIQLALRTGQYRNINVIEVYEGELKSFNRLTEEMELDFEQKQSDKVIGYTGYFELINGFRKTVYWSKEEIEKHKKRFSKSDFGWKKDWDAMAKKTVIRNMLNKWGILSIDMQKGIVEDNKDPIEKANEFDEQDIIEADFSEVNDDQEIDFSDAQ | 0.121 | 1.896 | 2.101 | −1.654 | −0.724
5 | SSAP_249: SEQ ID NO: 418; environmental Halophage eHP-30 (protein, environmental Halophage eHP-30) TEQNQTPAKTESKSPIKAQLYKDNVQQRFQELLGERASAFMTSVMSVVKDNDQLSQAEPSSVLNAAMTAATLDMPIDNNLGMAYIVPYKDGKSGKTYAQFQLGYKGFIQLAQRSGQFKTISATPVRQGQIVTADPLRGYEFDFTQGQDKEVVGYAAYFALLNGFEKTLYMSKAEMEQHAASYAAGYKKGYSNWNRKFDEMALKTVIKQLLSKYAPLSVDMQKAQQTDQTVSVEEPNAIEQQEAAPEIDASSNNNQNQ | −3.156 | −3.279 | −0.575 | −3.033 | −0.543
6 | SSAP_95: SEQ ID NO: 264; Proteus terrae (protein, listed as Proteus terrae) SNPPLAQADLQKTQGTEVREKTKDQMLVEFINKPNMKAQLAAALPRHMAPDRMIRIVTTEIRKTPELANCDMQSFVGAVVQCSQLGLEPGNALGHAYILPFEKKRKQGNQWVTVRTDAQLIIGYRGMIDLARRSGQIVSISARTVRQGDSFHFEYGLNENLTHVPGENEDSPITHVYAVARLKDGGVQFEVMTHNQIEKVRTSSKAGQNGPWVSHWEEMAKKTVIRRLFKYLPVSIEMQKAVILDEKAEANVDQENSSVFEGEFEEVGQGA | −1.672 | −3.325 | −0.539 | −0.020 | −0.011
7 | SSAP_169: SEQ ID NO: 338; Streptomyces showdoensis (protein, listed as Streptomyces showdoensis) TSDARNAVARRAANVGQVEQAGEQPKPTMAQQIERMKPEIARALPKHMDADRIARIALTLIRKNPDLANCTTESFLGALMTCSQLGFEPGSPTQEAYIIPRKGQAEFQLGYQGMVTLFYQHPMASSVKVETVRENDYFEHEEGLEERLIHRPFADGPRGKAIAYYSVARLINGGRTFKVMYPAEIEERRQKLPSKNSPAWRDNYDEMAKKTVLRNHFKALPKSAELARALAHDGTVRTDWQPDAIDVPPEYLSEPQRPELEAGAQ | −2.669 | −3.497 | −0.528 | −1.842 | −1.968
8 | SSAP_96: SEQ ID NO: 265; Plesiomonas shigelloides (protein, Plesiomonas shigelloides) SNQRPPIATADLQKAQSQPPAAKPEQNLINFINQPSMKSQIAAALPRHMAPERMIRIITTEIRKTPKLATCDVQSFIGAVVQCSQLGLEPGGGLGHAYLLPFGNGKAESGKPNVQLIIGYRGMIDLARRSGQIVSISSRIVREGDQFHYEYGLNETLKHVPGDNESAPITHVYAVAKLKDGGTQFEVMSFNEIEKIRGQSKAGNDGPWIKHWEEMAKKTVIRRLFKYLPVSIEMQRAVILDEKAEADIEQDNASIIGAEYSVVENAA | −1.869 | −3.416 | −1.995 | −0.322 | −1.581
9 | SSAP_320: SEQ ID NO: 489; Pseudoalteromonas sp. MQS005 (protein, listed as Pseudoalteromonas sp.) SISQQDYENLLYSKLYECESQYQAYLAEHNEKLNFNAELNYMYKAVMSGVGIEGGFPYTPLESIVESFLKAAKLGLSLDPSEQFCFLRSQYDHSTGLYHTELGLGYKGVLHLAYRSGKVKQIVSNVFYNKDNFQFNGPNSKVTHTMTVLSTSARGNLAGGYCQTELVDGSFIVTVMPPEEILAIEEQGKSVGNPAWLSAHVNQMREKTLILRHWKTLYPAIYSSSLLDSAQIFDDECEEFPFSSPSQGFSESQTIGSY | −2.305 | −3.288 | −0.449 | −1.322 | −0.932
10 | SSAP_57: SEQ ID NO: 226; Pirellula sp. SH-Sr6A (protein, listed as Pirellula sp.) SEATKEAKPETAIAKKPNGIKDWLKSDALKTQIASVAPKHMAPERVMRIALNAVSRTPKLADCTPESFMRCLLDLSSWGLVPDGRHAHLIPYGTECTLVLDYKGLVTLAYRSGWVKKIHADVVFEGDIFVYSLGTVCQHIPWEFRDDANKPEHKGHFRAAYCVVTMADGIEKHEVMTASEIDAIKAKSRSGNSGPWKDHYTEMAKKTVYRRASKWLPLSPEQADAMERDDDRIIDAVSVAVTQRLSKAAMPLIGANETGDTE | −3.391 | −3.405 | −0.557 | −3.376 | −0.549
11 | SSAP_290: SEQ ID NO: 459; Anaerovirgula multivorans (protein, Anaerovirgula multivorans) DAKHLTVVHQNLNTLLKAKADALPKGFNQTRFLQNCMTVLQDTKDIESVEPKSVARTMLKGAFLGLDFFNKECYAIVYNKKAGNSWIKTLEFQTDYKGEIKLAKKYSINTIKDIYAKLVREGDEFEEGVKDGKQVINFKPKPFNNNKILGAFAVAYYENGSMIYDTMSVEEIESVKKAYAKADKEGKYSKAWIESTGEMYKKTVLRRLCKLIELDFDTIEQKQAFDEGSGMEFKQEGKTDKPKSSLEAEFVEAEYEEVEESETSEVVEE | −2.336 | −3.506 | −0.681 | −1.166 | −0.249
12 | SSAP_113: SEQ ID NO: 282; Acinetobacter sp. RIT592 (protein, listed as Acinetobacter sp.) ADLKNKLANKAAGTVTKTSPNAGMKQLMKSMSKEIEAALPSHMSSERFQRVALTAFGNNPKLMNCDPMSFIAAMMDSAQLGLEPNTPLGQAYLIPYGTKVQFQVGYKGLLELALRSGKIKTLYAHEVRENDTFEVKYGLHQDLIHEPVLKGNRGEVIGYYAVYHLDTGGHSFVFMTKDEVLEHAKGKSKTFNNGPWQTDFDAMAKKTVIKQLLKYAPLSIEMQKAVSSDETVKSKIDEDMSLVVDESDSIEANFEIKEDEDGQLDVYVK | −3.431 | −3.134 | −3.818 | −3.728 | −3.241
13 | SSAP_26: SEQ ID NO: 195 (protein) TVQLVQPRNSDEYDFDQTKLDLIKRTICKGATNDELQLFIHACKRTGLDPFMRQIFAVKRWDSSTKKEIMTIQTGIDGYRLIADRTGKYAPGKDTEFGYDNKGNIRWAKAYIKKMTPDGQWHEISAIAFWEEYVQTTREGKSTLFWLKKSHIMLSKCTEALALRKTFPAERSGIYTKEEMAQEFSPLEEHLVERIAASRNDQGRS | −1.354 | −3.399 | −0.852 | 0.692 | 1.723
